{
  "source": "patent US20090239794A1",
  "about": "“HCV F PROTEIN AND USES THEREOF” (priority 2004, published 2009)",
  "molecules": {"B1": {"name": "Fmut8Δ11: truncated recombinant HCV-1a F protein lacking the first 11 N-terminal residues shared with core; SEQ ID NO: 12; produced in E. coli (protein)", "chain": "PNVTPTVAHRTSSSRVAVRSLVEFTCCRAGALDWVCARRGRLPSGRNLEVDVSLSPRHVGPRAGPGLSPGTLGPSMAMRAADGRDGSCLPVALGLVGAPQTPGVGRAIWVRSSIPSRAASPTSWGTYRSSAPPLEALPGPWRMASGFWRTA", "modifications": "Hepatitis C virus"}},
  "test_system": "C57Bl/6 mice",
  "assay": "Protocol 2: ARFP immunization of mice, total anti-ARFP Ig ELISA",
  "details": "for Titer (ARFP-specific Ig) / ELISA optical density (total anti-ARFP Ig), serum dilution 1/50 / ELISA optical density (total anti-ARFP Ig), serum dilution 1/100 / ELISA optical density (total anti-ARFP Ig), serum dilution 1/200 / ELISA optical density (total anti-ARFP Ig), serum dilution 1/400 / ELISA optical density (total anti-ARFP Ig), serum dilution 1/800 / ELISA optical density (total anti-ARFP Ig), serum dilution 1/1600: individual mice",
  "key": {"[1]": {"details": "1st immunization (day 0), blood taken prior to immunization, listed as ARFP"}, "[2]": {"details": "2nd immunization (day 14), blood taken prior to immunization, listed as ARFP"}, "[3]": {"details": "3d immunization (day 29), blood taken prior to immunization, listed as ARFP"}, "[4]": {"details": "Sacrifice (day 52), listed as ARFP"}},
  "note": "Where “and” joins values, the source holds several entries; their conditions need not be identical. Equal values may be shown once.",
  "data": [
    {"molecule": "B1", "values": [
      {"measurement": "Titer (ARFP-specific Ig)", "setting": "1st immunization (day 0), blood taken prior to immunization", "result": 0},
      {"measurement": "ELISA optical density (total anti-ARFP Ig), serum dilution 1/50", "setting": "[1]", "result": "0.211 and 0.209 and 0.199 and 0.218 and 0.323 and 0.278 and 0.229 and 0.166 and 0.236 and 0.243 and 0.247 and 0.208 and 0.206 and 0.205 and 0.217"},
      {"measurement": "ELISA optical density (total anti-ARFP Ig), serum dilution 1/100", "setting": "[1]", "result": "0.128 and 0.115 (2×) and 0.174 and 0.208 and 0.186 and 0.171 and 0.152 and 0.161 (2×) and 0.145 and 0.134 and 0.132 and 0.142 and 0.127"},
      {"measurement": "ELISA optical density (total anti-ARFP Ig), serum dilution 1/200", "setting": "[1]", "result": "0.123 and 0.150 and 0.128 and 0.136 (2×) and 0.114 and 0.111 and 0.121 and 0.113 (2×) and 0.104 and 0.117 and 0.164 and 0.144 and 0.140"},
      {"measurement": "ELISA optical density (total anti-ARFP Ig), serum dilution 1/400", "setting": "[1]", "result": "0.132 and 0.164 and 0.114 and 0.118 and 0.116 and 0.121 and 0.133 and 0.115 and 0.104 and 0.110 and 0.120 and 0.128 and 0.191 and 0.138 and 0.126"},
      {"measurement": "ELISA optical density (total anti-ARFP Ig), serum dilution 1/800", "setting": "[1]", "result": "0.119 and 0.138 and 0.113 and 0.118 and 0.115 (2×) and 0.117 and 0.128 and 0.108 and 0.103 and 0.105 and 0.123 and 0.134 and 0.137 and 0.114"},
      {"measurement": "ELISA optical density (total anti-ARFP Ig), serum dilution 1/1600", "setting": "[1]", "result": "0.138 and 0.122 and 0.109 (2×) and 0.110 and 0.116 and 0.124 and 0.108 and 0.106 and 0.107 and 0.105 and 0.119 and 0.129 and 0.127 and 0.114"},
      {"measurement": "ELISA optical density (total anti-ARFP Ig), serum dilution 1/50", "setting": "[2]", "result": "0.370 and 0.625 and 0.303 and 0.339 and 0.421 and 3.852 and 0.552 and 0.270 and 2.758 and 0.505 and >4.000 (3×) and 0.189 and 3.567"},
      {"measurement": "ELISA optical density (total anti-ARFP Ig), serum dilution 1/100", "setting": "[2]", "result": "0.187 and 0.306 and 0.155 and 0.164 and 0.156 and 1.842 and 0.204 and 0.153 and 0.560 and 0.191 and 3.323 and 0.141 and 3.184 and >4.000 and 1.876"},
      {"measurement": "ELISA optical density (total anti-ARFP Ig), serum dilution 1/200", "setting": "[2]", "result": "0.168 and 0.183 and 0.128 and 0.126 and 0.133 and 1.337 and 0.149 and 0.124 and 0.295 and 0.144 and 2.201 and 0.112 and 3.227 and >4.000 and 1.851"},
      {"measurement": "ELISA optical density (total anti-ARFP Ig), serum dilution 1/400", "setting": "[2]", "result": "0.173 and 0.152 and 0.136 and 0.129 and 0.122 and 0.777 and 0.133 and 0.123 and 0.204 and 0.131 and 1.212 and 0.111 and 1.433 and 2.473 and 0.736"},
      {"measurement": "ELISA optical density (total anti-ARFP Ig), serum dilution 1/800", "setting": "[2]", "result": "0.156 and 0.130 and 0.123 and 0.121 (2×) and 0.539 and 0.125 and 0.124 and 0.173 and 0.122 and 0.622 and 0.113 and 0.790 and 2.199 and 0.427"},
      {"measurement": "ELISA optical density (total anti-ARFP Ig), serum dilution 1/1600", "setting": "[2]", "result": "0.137 and 0.126 and 0.118 and 0.122 and 0.119 and 0.546 and 0.125 and 0.146 and 0.154 and 0.115 and 0.337 and 0.113 and 0.462 and 1.296 and 0.271"},
      {"measurement": "Titer (ARFP-specific Ig)", "setting": "[2]", "result": "0 (9×) and 200 (2×) and 50 and 400 (2×) and >1600"},
      {"measurement": "ELISA optical density (total anti-ARFP Ig), serum dilution 1/50", "setting": "[3]", "result": "3.831 and 3.849 and 3.373 and 3.573 and 2.987 and 2.874 and 2.626 and 3.470 and 3.517 and 1.225 and 3.635 and 0.801 and 3.936 and 3.926 and >4.000"},
      {"measurement": "ELISA optical density (total anti-ARFP Ig), serum dilution 1/100", "setting": "[3]", "result": "3.525 and 3.898 and 2.898 and 1.264 and 0.982 and 1.468 and 1.197 and 2.613 and 1.648 and 0.560 and >4.000 (2×) and 0.304 and 3.959 and 3.978"},
      {"measurement": "ELISA optical density (total anti-ARFP Ig), serum dilution 1/200", "setting": "[3]", "result": "2.387 and 3.359 and 1.364 and 1.013 and 0.684 and 0.906 and 0.657 and 3.189 and 1.518 and 0.303 and 3.924 and 0.240 and 3.936 and 3.853 and >4.000"},
      {"measurement": "ELISA optical density (total anti-ARFP Ig), serum dilution 1/400", "setting": "[3]", "result": "1.910 and 2.646 and 1.019 and 0.830 and 0.473 and 0.493 and 0.397 and 3.666 and 1.315 and 0.291 and 3.086 and 0.174 and 3.874 and 3.765 and >4.000"},
      {"measurement": "ELISA optical density (total anti-ARFP Ig), serum dilution 1/800", "setting": "[3]", "result": "1.316 and 1.965 and 0.647 and 0.556 and 0.366 and 0.536 and 0.266 and 3.106 and 1.194 and 0.218 and >4.000 and 0.188 and 3.874 and 3.903 and 3.429"},
      {"measurement": "ELISA optical density (total anti-ARFP Ig), serum dilution 1/1600", "setting": "[3]", "result": "0.770 and 1.960 and 0.558 and 0.428 and 0.284 and 0.513 and 0.298 and 3.423 and 1.055 and 0.187 and 3.573 and 0.266 and 3.907 and 3.939 and 3.210"},
      {"measurement": "Titer (ARFP-specific Ig)", "setting": "[3]", "result": "800 and >1600 (7×) and 400 (2×) and 100 (2×) and 200 and 50 and 0"},
      {"measurement": "ARFP-specific Ig titer, mean+/−standard deviation", "setting": "Protocol 2, before the 2nd immunization", "result": "190.0+/−401.7"},
      {"measurement": "anti-ARFP Ig titer, mean+/−standard deviation", "setting": "Protocol 2, day 29", "result": "883.3+/−694.7"},
      {"measurement": "anti-ARFP Ig titer, mean+/−standard deviation", "setting": "Protocol 2, day 52", "result": "1493+/−272.0"},
      {"measurement": "ELISA optical density (total anti-ARFP Ig), serum dilution 1/50", "setting": "[4]", "result": "3.593 and 3.623 and 2.931 and 3.934 and 3.865 and >4.000 and 3.796 and 3.843 and 3.456 and 3.855 and 3.717 and 3.534 and 3.636 and 3.780 and 3.783"},
      {"measurement": "ELISA optical density (total anti-ARFP Ig), serum dilution 1/100", "setting": "[4]", "result": "3.071 and 3.581 and 2.555 and 3.459 and >4.000 (2×) and 3.873 and 3.848 and 3.622 and 3.966 and 1.524 and 2.193 and 3.518 and 2.628 and 3.952"},
      {"measurement": "ELISA optical density (total anti-ARFP Ig), serum dilution 1/200", "setting": "[4]", "result": "1.902 and 1.744 and 1.431 and 2.418 and 2.646 and >4.000 and 3.807 and 3.818 and 3.641 and 3.184 and 3.740 and 1.047 and 2.844 and 2.829 and 3.142"},
      {"measurement": "ELISA optical density (total anti-ARFP Ig), serum dilution 1/400", "setting": "[4]", "result": "1.187 and 1.526 and 0.987 and 1.257 and 2.378 and >4.000 and 3.802 and 3.891 and 3.742 and 3.885 and 3.660 and 1.001 and 3.548 and 3.151 and 3.752"},
      {"measurement": "ELISA optical density (total anti-ARFP Ig), serum dilution 1/800", "setting": "[4]", "result": "1.110 and 1.341 and 0.818 and 1.093 and 2.236 and >4.000 and 3.867 and 3.833 and 3.665 and 3.171 and 3.717 and 0.856 and 3.406 and 3.707 and 3.620"},
      {"measurement": "ELISA optical density (total anti-ARFP Ig), serum dilution 1/1600", "setting": "[4]", "result": "1.589 and 1.086 and 1.084 and 0.771 and 1.427 and >4.000 and 3.813 and 3.843 and 3.612 and 3.055 and 3.832 and 0.510 and 3.562 and 3.780 and 3.976"},
      {"measurement": "Titer (ARFP-specific Ig)", "setting": "[4]", "result": ">1600 (13×) and 800 (2×)"}
    ]}
  ]
}
